According to patent publication US20220135638A1 (Takeda / Millennium, published 2022):
Numbered stars: 1 amine (or outer) side, 2 acyl side, 3 side chain; on linkers, the order of the positions; unused ones are H or OH. Square brackets hold non-standard residues; d marks the D form. Primed or numbered codes have the meaning given here. Side chains are listed from the residue outwards. Ends that are not written are not given here. * marks the point of attachment. C20 diacid = O=C(O)CCCCCCCCCCCCCCCCCCC(=O)*; C18 diacid = O=C(O)CCCCCCCCCCCCCCCCC(=O)*; C16 diacid = O=C(O)CCCCCCCCCCCCCCC(=O)*; γGlu = O=C(O)[C@H](CCC(=O)[*:2])N[*:1]; Iva = CC[C@](C)(N)C(=O)O; PEG3′ = not defined here; Aib = CC(C)(N)C(=O)O

T1: full-length human GIPR (GenBank NM_000164) with an N-terminal FLAG tag on HEK-293T cells (human), P48546
T1 chain: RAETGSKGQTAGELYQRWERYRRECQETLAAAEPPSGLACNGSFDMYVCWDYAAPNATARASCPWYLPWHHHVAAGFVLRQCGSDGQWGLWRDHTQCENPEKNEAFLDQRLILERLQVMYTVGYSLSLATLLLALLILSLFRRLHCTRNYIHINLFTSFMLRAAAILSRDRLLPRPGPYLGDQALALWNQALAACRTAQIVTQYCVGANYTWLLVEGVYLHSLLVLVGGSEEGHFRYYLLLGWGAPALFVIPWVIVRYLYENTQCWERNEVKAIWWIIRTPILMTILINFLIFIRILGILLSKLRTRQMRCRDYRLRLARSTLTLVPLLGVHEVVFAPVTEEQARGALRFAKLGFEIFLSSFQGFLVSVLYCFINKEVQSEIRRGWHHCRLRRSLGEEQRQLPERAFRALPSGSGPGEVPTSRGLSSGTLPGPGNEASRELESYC

T2: full-length human GLP-1R (GenBank NM_002062) with an N-terminal FLAG tag on HEK-293T cells (human), P43220
T2 chain: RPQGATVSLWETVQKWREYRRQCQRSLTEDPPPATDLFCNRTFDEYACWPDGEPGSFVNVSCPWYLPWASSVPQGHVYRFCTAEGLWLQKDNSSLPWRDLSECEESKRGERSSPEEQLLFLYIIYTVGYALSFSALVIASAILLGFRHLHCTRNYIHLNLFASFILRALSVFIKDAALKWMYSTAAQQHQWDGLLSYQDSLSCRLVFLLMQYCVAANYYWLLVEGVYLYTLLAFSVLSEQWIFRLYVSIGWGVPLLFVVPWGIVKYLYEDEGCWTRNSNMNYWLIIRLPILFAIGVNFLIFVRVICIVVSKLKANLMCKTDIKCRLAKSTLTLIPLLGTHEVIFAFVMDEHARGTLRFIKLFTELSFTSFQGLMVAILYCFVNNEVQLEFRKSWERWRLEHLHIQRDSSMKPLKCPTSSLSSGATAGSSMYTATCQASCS

B1: Compound No. 458 (peptide)
peptide: Y[Aib]EGTFISDYSIALDR[Aib]HQ[Aib]NFVNW[Iva]LAQRPSSGAPK([Gly-Gly-Gly-Gly-Gly-γGlu-C20 diacid])PS
modifications: ends and bridges not checked
B2: Compound No. 448 (peptide)
peptide: Y[Aib]EGTFISDYSIALDR[Aib]HQ[Aib]NFVNW[Iva]LAQRPSSK([Gly-Gly-Gly-Gly-Gly-γGlu-C18 diacid])APPPS
modifications: ends and bridges not checked
B3: Compound No. 449 (peptide)
peptide: Y[Aib]EGTFISDYSIALDR[Aib]HQ[Aib]NFVNW[Iva]LAQRPSSK([Gly-Gly-Gly-Gly-Gly-γGlu-C20 diacid])APPPS
modifications: ends and bridges not checked
B4: Compound No. 468 (peptide)
peptide: Y[Aib]EGTFISDYSIALDR[Aib]HQ[Aib]NFVNW[Iva]LAQRKSSGAPPPS
modifications: not fully specified (residue 31); ends and bridges not checked
B5: Compound No. 456 (peptide)
peptide: Y[Aib]EGTFISDYSIALDR[Aib]HQ[Aib]NFVNW[Iva]LAQRPSSGAPK([Gly-Gly-Gly-Gly-Gly-γGlu-C16 diacid])PS
modifications: ends and bridges not checked
B6: Compound No. 463 (peptide)
peptide: Y[Aib]EGTFISDYSIALDR[Aib]HQ[Aib]NFVNW[Iva]LAQRPSSGAPPPK([Gly-Gly-Gly-Gly-Gly-γGlu-C18 diacid])
modifications: ends and bridges not checked
B7: Compound No. 446 (peptide)
peptide: Y[Aib]EGTFISDYSIALDR[Aib]HQ[Aib]NFVNW[Iva]LAQRPSK([Gly-Gly-Gly-Gly-Gly-γGlu-C20 diacid])GAPPPS
modifications: ends and bridges not checked
B8: Compound No. 442 (peptide)
peptide: Y[Aib]EGTFISDYSIALDR[Aib]HQ[Aib]NFVNW[Iva]LAQRPK([Gly-Gly-Gly-Gly-Gly-γGlu-C18 diacid])SGAPPPS
modifications: ends and bridges not checked
B9: Compound No. 447 (peptide)
peptide: Y[Aib]EGTFISDYSIALDR[Aib]HQ[Aib]NFVNW[Iva]LAQRPSSK([Gly-Gly-Gly-Gly-Gly-γGlu-C16 diacid])APPPS
modifications: ends and bridges not checked
B10: Compound No. 462 (peptide)
peptide: Y[Aib]EGTFISDYSIALDR[Aib]HQ[Aib]NFVNW[Iva]LAQRPSSGAPPPK([Gly-Gly-Gly-Gly-Gly-γGlu-C16 diacid])
modifications: ends and bridges not checked
B11: Compound No. 441 (peptide)
peptide: Y[Aib]EGTFISDYSIALDR[Aib]HQ[Aib]NFVNW[Iva]LAQRPK([Gly-Gly-Gly-Gly-Gly-γGlu-C16 diacid])SGAPPPS
modifications: ends and bridges not checked
B12: Compound No 913 (peptide)
peptide: Y[Aib]EGTFISDYSIALDR[Aib]HQ[Aib]NFVNW[Iva]LAQRK([PEG3′-PEG3′-C20 diacid])SSGAPPPSR
modifications: ends and bridges not checked
B13: Compound No. 453 (peptide)
peptide: Y[Aib]EGTFISDYSIALDR[Aib]HQ[Aib]NFVNW[Iva]LAQRPSSGAK([Gly-Gly-Gly-Gly-Gly-γGlu-C16 diacid])PPS
modifications: ends and bridges not checked
B14: Compound No. 457 (peptide)
peptide: Y[Aib]EGTFISDYSIALDR[Aib]HQ[Aib]NFVNW[Iva]LAQRPSSGAPK([Gly-Gly-Gly-Gly-Gly-γGlu-C18 diacid])PS
modifications: ends and bridges not checked
B15: Compound No. 450 (peptide)
peptide: Y[Aib]EGTFISDYSIALDR[Aib]HQ[Aib]NFVNW[Iva]LAQRPSSGK([Gly-Gly-Gly-Gly-Gly-γGlu-C16 diacid])PPPS
modifications: ends and bridges not checked
B16: Compound No. 445 (peptide)
peptide: Y[Aib]EGTFISDYSIALDR[Aib]HQ[Aib]NFVNW[Iva]LAQRPSK([Gly-Gly-Gly-Gly-Gly-γGlu-C18 diacid])GAPPPS
modifications: ends and bridges not checked
B17: Compound No. 460 (peptide)
peptide: Y[Aib]EGTFISDYSIALDR[Aib]HQ[Aib]NFVNW[Iva]LAQRPSSGAPPK([Gly-Gly-Gly-Gly-Gly-γGlu-C18 diacid])S
modifications: ends and bridges not checked
B18: Compound No. 451 (peptide)
peptide: Y[Aib]EGTFISDYSIALDR[Aib]HQ[Aib]NFVNW[Iva]LAQRPSSGK([Gly-Gly-Gly-Gly-Gly-γGlu-C18 diacid])PPPS
modifications: ends and bridges not checked
B19: Compound No. 454 (peptide)
peptide: Y[Aib]EGTFISDYSIALDR[Aib]HQ[Aib]NFVNW[Iva]LAQRPSSGAK([Gly-Gly-Gly-Gly-Gly-γGlu-C18 diacid])PPS
modifications: ends and bridges not checked
B20: Compound No. 443 (peptide)
peptide: Y[Aib]EGTFISDYSIALDR[Aib]HQ[Aib]NFVNW[Iva]LAQRPK([Gly-Gly-Gly-Gly-Gly-γGlu-C20 diacid])SGAPPPS
modifications: ends and bridges not checked
B21: Compound No. 452 (peptide)
peptide: Y[Aib]EGTFISDYSIALDR[Aib]HQ[Aib]NFVNW[Iva]LAQRPSSGK([Gly-Gly-Gly-Gly-Gly-γGlu-C20 diacid])PPPS
modifications: ends and bridges not checked
B22: Compound No. 459 (peptide)
peptide: Y[Aib]EGTFISDYSIALDR[Aib]HQ[Aib]NFVNW[Iva]LAQRPSSGAPPK([Gly-Gly-Gly-Gly-Gly-γGlu-C16 diacid])S
modifications: ends and bridges not checked
B23: Compound No. 464 (peptide)
peptide: Y[Aib]EGTFISDYSIALDR[Aib]HQ[Aib]NFVNW[Iva]LAQRPSSGAPPPK([Gly-Gly-Gly-Gly-Gly-γGlu-C20 diacid])
modifications: ends and bridges not checked
B24: Compound No. 455 (peptide)
peptide: Y[Aib]EGTFISDYSIALDR[Aib]HQ[Aib]NFVNW[Iva]LAQRPSSGAK([Gly-Gly-Gly-Gly-Gly-γGlu-C20 diacid])PPS
modifications: ends and bridges not checked
B25: Compound No. 444 (peptide)
peptide: Y[Aib]EGTFISDYSIALDR[Aib]HQ[Aib]NFVNW[Iva]LAQRPSK([Gly-Gly-Gly-Gly-Gly-γGlu-C16 diacid])GAPPPS
modifications: ends and bridges not checked
B26: Compound No. 461 (peptide)
peptide: Y[Aib]EGTFISDYSIALDR[Aib]HQ[Aib]NFVNW[Iva]LAQRPSSGAPPK([Gly-Gly-Gly-Gly-Gly-γGlu-C20 diacid])S
modifications: ends and bridges not checked

Experiments:
[1] = target: T1, full-length human GIPR (GenBank …); assay: cell-based or functional assay
[2] = target: T2, full-length human GLP-1R (GenBank …); assay: cell-based or functional assay

Binder | GIP EC50(pM) [1] [pM] | GLP EC50 [2] [nM]
B1 | 1.31 | > 1000
B2 | 0.54 | > 1000
B3 | 0.65 | 912
B4 | 0.44 | > 1000
B5 | 0.57 | > 1000
B6 | 0.52 | > 1000
B7 | 0.85 | 891
B8 | 1.01 | > 1000
B9 | 0.31 | > 1000
B10 | 0.35 | > 1000
B11 | 0.33 | > 1000
B12 | – | 575
B13 | 0.6 | > 1000
B14 | 0.82 | > 1000
B15 | 0.4 | > 1000
B16 | 0.38 | > 1000
B17 | 0.44 | > 1000
B18 | 0.74 | > 1000
B19 | 1.14 | > 1000
B20 | 0.86 | 977
B21 | 2.17 | > 1000
B22 | 0.41 | > 1000
B23 | 1.29 | 977
B24 | 2.24 | > 1000
B25 | 0.39 | > 1000
B26 | 1.3 | > 1000
